Experimental data taken from patent US20050260219A1, “Carboxypeptidases B from anopheles gambiae. compositions comprising them, vaccine applications and use as therapeutical targets” (INSTITUT PASTEUR, priority 2004, published 2005).
Values joined by “and” are separate entries in the source; they are usually repeats but may differ in a detail not shown here. Equal entries are not always repeated. Marks after values point to notes of the source that are not given here.

Columns and labels:
[1] = substrate: N=C(N)NCCC[C@H](NC(=O)CNC(=O)c1ccccc1)C(=O)O; assay: Carboxypeptidase activity assay on recombinant CPBAg1 with di-peptide substrates; format: biochemical, Anopheles gambiae; details: other: hydrolysis of Hip-Arg, Michaelis-Menten, 0.02-10 mM substrate; pH 7.2; 25.0 °C
Description: Carboxypeptidase activity was determined using the synthetic di-peptide substrates Hippuryl-Arginine (Hip-Arg), Hippuryl-Lysine (Hip-Lys) as carboxypeptidase B substrates and Hippuryl-Phenylalanine (Hip-Phe) as carboxypeptidase A substrate. All reagents were purchased from Sigma. Activities were assayed in 20 μl E buffer (100 mM NaCl/50 mM Hepes/100 μM ZnCl2 pH 7.2) containing 1 mM Hip-Arg, Hip-Lys or Hip-Phe. The reaction was initiated by adding an equal volume of His-tagged CPBAg1 (5 ng/μl in E buffer), incubated at 25° C. for 10-40 min, and stopped by the addition of 20 μl Ninhydrin reagent (Sigma, Lyon, France). The rate of the reaction was measured by estimating the amount of released amino acids using the ninhydrin procedure (60). One unit of enzyme activity was defined as μmol of amino acids released/min.
Estimation of Km and kcat was carried out after assays over a 500-fold range of Hip-Arg concentration (0.02-10 mM). Each concentration was assayed in triplicate. The kinetic parameters were derived from iterative non-linear least square fits of the Michaelis-Menten equation using the experimental data (61). Confidence limits for the fitted values were determined by 100 Monte Carlo iterations using the experimental standard deviations on individual measurements. […]

[2] = tested on: P. berghei PbGFPCON ANKA strain; assay: Effect of CPBAg1 immunized mice sera on parasite development (GFP-expressing P. berghei); format: in vivo, Plasmodium berghei
Description: Intensity of infection (number of parasites per positive midgut) by P. berghei was scored by detection of GFP-expressing parasites in midguts of mosquitoes fed on control (black bars) and immunized mice (grey bars). Gametocytemia was determined just before feeding by Giemsa staining of thin smears and by GFP fluorescence detection. Mosquitoes were dissected at 3 h, 24 h, 48 h and 9 days after blood feeding to visualize zygotes (Zyg), ookinetes (Ook), young oocysts (Ooc 48 h) and mature oocysts (Ooc day 9), respectively. Geometric mean intensity for six immunized mice was plotted as % of that for six control mice set at 100%. The table indicates the geometric mean number of parasite per midgut at each parasite life stages.
To assess the effect of anti-CPBAg1 sera on parasite development, a new group of six mice was immunized as described above and six control mice were injected with PBS/adjuvant. […] On day 3 after P. berghei inoculation, gametocytemia were determined by Giemsa staining of thin blood smears and by GFP fluorescence detection. […] Intensity of infection was scored by counting the number of zygotes and ookinetes within the mosquito midgut content, and the number of oocysts on the midgut wall. GFP fluorescence was visualized using GFP filter settings with a Zeiss Axiovert 25 fluorescence microscope.

CPBAg1 = CPBAg1 specific ELISA titers in sera from immunized mice; format: in vivo; details: Swiss mice
Description: Specific antibody titers against CPBAg1 were measured in duplicates for each mice by ELISA three weeks after the first (group 1) and the booster (group 2) immunization. The average reading at O.D. 490 nm of each group was plotted against the reciprocal sera dilution. End points were defined as the highest serial dilutions yielding an absorbance reading at 490 nm greater than 0.5. (Δ) and (□) show antibody titers from group 1 and 2 respectively in sera from immunized mice. (▴) and (▪) show antibody titers from group 1 and 2 respectively in sera from control mice.
Immunizations were performed with a recombinant CPBAg1 protein expressed in insect cells using the baculovirus expression system. Eleven 3- to 4-week-old female Swiss outbred mice (CERJ, Le Genest St-Isle, France) were injected subcutaneously with 20 μg of recombinant CPBAg1 in sterile PBS, emulsified with complete Freund's adjuvant (Sigma). […]
Microtiter plates (Immuno-plate Maxisorp, Nunc) were coated with 50 ng/well of CPBAg1 in PBS, overnight at 4° C., and saturated with 100 μl/well 0.5% gelatine (Sigma) in PBS for 1 h. […] After 10 min. incubation, the reaction was stopped with 50 μl 3N HCl and absorbance was measured at 490 nm using a microplate reader (Molecular Devices). Serum dilutions at an absorbance value of 0.5 were designated as the endpoint of ELISA titers.

P. berghei = assay: Transmission-blocking assays: An. gambiae fed on CPBAg1 immunized, P. berghei infected mice; format: in vivo, Plasmodium berghei; details: for Mean no. of oocysts (range): per positive midgut, day 9-11; for % of reduction R: infected mosquitoes fed on immunized versus control mice
Description: Immunizations were performed with a recombinant CPBAg1 protein expressed in insect cells using the baculovirus expression system. Eleven 3- to 4-week-old female Swiss outbred mice (CERJ, Le Genest St-Isle, France) were injected subcutaneously with 20 μg of recombinant CPBAg1 in sterile PBS, emulsified with complete Freund's adjuvant (Sigma). Eleven control mice were injected simultaneously with sterile PBS/adjuvant following the same protocol. On day 21 post-immunization, eight immunized mice and eight control mice (group 1) were challenged with P. berghei for transmission blocking assays (see below). The three other immunized mice were boosted with 10 μg of recombinant CPBAg1 formulated in incomplete Freund's adjuvant (Sigma) and the three other control mice were injected simultaneously with sterile PBS/incomplete adjuvant. These six mice, which constituted group 2, were challenged with P. berghei 21 days after the booster immunization. Sera from immunized and control mice of both groups were prepared from 100 μl blood samples collected the same day as mosquito feeding (24 days after the first and booster immunizations).
On day 21 after the first and booster immunizations, mice were peritoneally inoculated with the P. berghei ANKA strain 2.34. On day 3 after P. berghei inoculation, parasitemia and gametocytemia were determined using Giemsa stained thin blood smears, and the mice were used for mosquito feeding. In group 1, parasitemia and gametocytemia ranged from 3.2% to 6.2% and from 6,500 to 11,500 gametocytes/μl for control mice, whereas they ranged from 3% to 7.4% and from 7,500 to 13,500 gametocytes/μl for immunized mice. In group 2, they ranged from 2% to 2.9% and from 2,000 to 4,000 gametocytes/μl for control mice, whereas they ranged from 1.5% to 3.6% and from 1,000 to 2,000 gametocytes/μl for immunized mice. Each mouse was placed onto a netted cage containing 50 starved 5-day-old An. gambiae females and feeding was carried out for 15 minutes at 21° C. After mosquito feeding, mice were bled to collect sera for ELISAs experiments and fully engorged mosquito females were maintained at 21° C., 80% humidity, until dissections. Rate of infection (number of infected mosquitoes/number of dissected mosquitoes) and intensity of infection (mean number of oocysts per positive midgut) were scored on day 9-11 after blood feeding by detection of oocysts on the mosquito midgut wall.
For the data reported in Table 7 below, An. gambiae were fed on control or immunized mice from group 1 (after primary immunization) and group 2 (after booster immunization). Proportion of infected mosquitoes (rate of infection) and mean number of oocysts per positive midgut (intensity of infection) were determined on day 9-11 post feeding. R: % reduction was calculated as R %=100×[1−(% infected mosquitoes fed on immunized mice/% infected mosquitoes fed on control mice)], using the mean value from each experimental group.

Row | Molecule | Km [1] [µM] | reduction of mean infection intensity versus mosquitoes fed on control mice ([2]; 3 h PBM (zygotes)) [%] | reduction of mean infection intensity versus mosquitoes fed on control mice ([2]; day 9 PBM (mature oocysts)) [%] | endpoint titer of specific anti-CPBAg1 antibodies (CPBAg1; group 1: single injection of 20 μg in complete Freund's adjuvant, 24 days after immunization) | endpoint titer of specific anti-CPBAg1 antibodies (CPBAg1; group 2: second injection on day 21) | Rate of infection % (number of dissected mosquitoes) (P. berghei; Group 1 (primary immunization), individual immunized mice Im 1-Im 8, day 9-11 post feeding) | Mean no. of oocysts (range) (P. berghei; Group 1, individual immunized mice Im 1-Im 8) | % of reduction R (P. berghei; Group 1) | Rate of infection % (number of dissected mosquitoes) (P. berghei; Group 2 (booster immunization), individual immunized mice Im 9-Im 11, day 9-11 post feeding) | Mean no. of oocysts (range) (P. berghei; Group 2, individual immunized mice Im 9-Im 11) | % of reduction R (P. berghei; Group 2) | Mean no. of oocysts (P. berghei; Mean Group 1, immunized mice) | Rate of infection % (number of dissected mosquitoes) (P. berghei; Mean Group 1, immunized mice) | Mean no. of oocysts (P. berghei; Mean Group 2, immunized mice) | Rate of infection % (number of dissected mosquitoes) (P. berghei; Mean Group 2, immunized mice)
1 | recombinant CPBAg1 (Anopheles gambiae) (protein) GSYHEFELYNVRPETAEQLSVLLKWRNGQEIEVDFWDAPKVGRSARLMVTREDHKRVEEFLEQHDIEYDLVAEDVQELLNREQRRNVEHGRRLRRDSNSRATVNFEHFWTLDEIYEYLDELAVAYNGLVRVSEIGRTHEDRPIKAITISTRGAVDQTRPIVFMDGGIHAREWAGVMSVMYMIHEFVEHSDQYAEQLSNTDYVIVPVANPDGYVYTHEQNRLWRKNRSPGNVLCYGVDLNRNFPFQWDRTTSECTNNFAGHAASSENETKALIGLMDQYKAAIRMYLAVHTYGEMILWPWGYDFLHAPNEDDLQRLGERARDALVAAGGPEYEVGNSADILYTASGATDDYAYSLGVPYSYTLELTGGGSQGFDLPAAELARVTSQTFELLKVFGQHAGTLSVTS | 2590 | – | – | – | – | – | – | – | – | – | – | – | – | – | –
2 | CPBAg1: recombinant His-tagged An. gambiae carboxypeptidase B (SEQ ID NO: 2) from baculovirus/insect cells, used to immunize mice (protein, listed as Anopheles gambiae, His tag) MKRLTFVTGCLLALAFAKAGSYHEFELYNVRPETAEQLSVLLKWRNGQEIEVDFWDAPKVGRSARLMVTREDHKRVEEFLEQHDIEYDLVAEDVQELLNREQRRNVEHGRRLRRDSNSRATVNFEHFWTLDEIYEYLDELAVAYNGLVRVSEIGRTHEDRPIKAITISTRGAVDQTRPIVFMDGGIHAREWAGVMSVMYMIHEFVEHSDQYAEQLSNTDYVIVPVANPDGYVYTHEQNRLWRKNRSPGNVLCYGVDLNRNFPFQWDRTTSECTNNFAGHAASSENETKALIGLMDQYKAAIRMYLAVHTYGEMILWPWGYDFLHAPNEDDLQRLGERARDALVAAGGPEYEVGNSADILYTASGATDDYAYSLGVPYSYTLELTGGGSQGFDLPAAELARVTSQTFELLKVFGQHAGTLSVTS | – | 40 | 65 | ~12,150 | ~36,450 | 9.4 (32)* % and 0 (20)* % and 43.3 (30)* % and 31.2 (32)* % and 41.2 (17)* % and 38.8 (18)* % and 50 (30)* % and 10.5 (38)* % | 2.5 (1-5)* and 0* and 7.16 (1-56) and 3.7 (1-70) and 5.4 (1-27) and 5.8 (1-32) and 6.7 (1-117) and 3.3 (1-15) | 63% and 63.2% | 77.4 (31)* % and 26.6 (30)* % and 36.6 (30)* % | 23.7 (1-120) and 6.2 (3-10)* and 24.3 (6-100) | 51% and 50.6% | 5.3 | 28.1 (217)* % | 18.6* | 47.2 (91)* %
